Measured values taken from article PMC5256278.

Tests used:
[1] = molecular target: squid hemocyanin (Todarodes pacificus) (Todarodes pacificus); assay: SAXS; Hc after high hydrostatic pressure at 200 MPa for 20 min; Kratky-type camera; aggregation numbers calculated with SAXS Quant 2.0
[2] = molecular target: squid hemocyanin (Todarodes pacificus) (Todarodes pacificus); assay: SAXS; Hc after high hydrostatic pressure at 600 MPa for 20 min; Kratky-type camera; aggregation numbers calculated with SAXS Quant 2.0
[3] = molecular target: squid hemocyanin (Todarodes pacificus) (Todarodes pacificus); assay: SAXS; Hc after high hydrostatic pressure at 400 MPa for 20 min; Kratky-type camera; aggregation numbers calculated with SAXS Quant 2.0
[4] = molecular target: squid hemocyanin (Todarodes pacificus) (Todarodes pacificus); assay: SAXS; untreated control Hc (0.1 MPa, 25 °C) in solution; Kratky-type camera; aggregation numbers calculated with SAXS Quant 2.0

Substance: squid hemocyanin (Todarodes pacificus) (natural protein)
- 〈Nagg〉G (Guinier aggregation number) [1]: 11.9
- 〈Nagg〉Q (average aggregation number) [1]: 12.7
- 〈Nagg〉G (Guinier aggregation number) [2]: 16
- 〈Nagg〉Q (average aggregation number) [2]: 15.2
- 〈Nagg〉G (Guinier aggregation number) [3]: 14.2
- 〈Nagg〉Q (average aggregation number) [3]: 14.4
- 〈Nagg〉G (Guinier aggregation number) [4]: 10.2
- 〈Nagg〉Q (average aggregation number) [4]: 9.3
